Measurements reported in patent WO2011004847A1 (dated 2011).
“And” between values parts separate entries of the source, which are not always exact repeats. Equal values may be shown once.

T1: human α9 integrin molecule expressed on SW480 cells (human, UniProt Q13797 30-1035)
T1 sequence (looked up): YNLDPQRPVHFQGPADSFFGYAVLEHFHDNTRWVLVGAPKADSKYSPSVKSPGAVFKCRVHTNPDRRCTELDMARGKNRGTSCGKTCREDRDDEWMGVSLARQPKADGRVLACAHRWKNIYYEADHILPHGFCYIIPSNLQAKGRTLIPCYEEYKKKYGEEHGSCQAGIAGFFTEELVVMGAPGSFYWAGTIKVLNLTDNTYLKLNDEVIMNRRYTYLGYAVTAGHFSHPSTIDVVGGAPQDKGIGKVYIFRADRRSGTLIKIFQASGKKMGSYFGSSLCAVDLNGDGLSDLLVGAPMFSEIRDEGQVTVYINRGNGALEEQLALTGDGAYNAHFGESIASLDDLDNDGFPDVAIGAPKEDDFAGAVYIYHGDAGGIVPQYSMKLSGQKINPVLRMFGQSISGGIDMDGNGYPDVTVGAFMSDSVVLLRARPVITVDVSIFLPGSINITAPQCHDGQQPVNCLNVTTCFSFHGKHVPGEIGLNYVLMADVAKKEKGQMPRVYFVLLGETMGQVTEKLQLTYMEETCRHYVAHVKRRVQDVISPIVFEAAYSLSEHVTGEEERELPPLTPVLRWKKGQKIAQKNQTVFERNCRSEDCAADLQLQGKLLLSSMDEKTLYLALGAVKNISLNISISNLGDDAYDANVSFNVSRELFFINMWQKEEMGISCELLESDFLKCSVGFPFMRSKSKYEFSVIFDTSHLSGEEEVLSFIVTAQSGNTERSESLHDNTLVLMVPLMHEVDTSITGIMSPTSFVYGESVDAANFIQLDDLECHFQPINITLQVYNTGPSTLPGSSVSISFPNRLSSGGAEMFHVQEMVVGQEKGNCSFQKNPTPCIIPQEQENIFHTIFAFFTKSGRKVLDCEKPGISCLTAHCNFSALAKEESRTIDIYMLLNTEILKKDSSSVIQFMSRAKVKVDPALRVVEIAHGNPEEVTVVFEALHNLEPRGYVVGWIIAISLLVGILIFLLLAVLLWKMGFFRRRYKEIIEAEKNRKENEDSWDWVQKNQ


Target: T1, human α9 integrin molecule expressed on …
Assay: cell-based or functional assay

IC50 (μg/mL), cell adhesion inhibition test	concentration giving significant inhibition of migration of SW480/hα9 cells toward nOPN-RAA [µg/mL]	cell adhesion inhibitory activity relative to mouse Y9A2 antibody [fold]	Binder
0.07 µg/mL and 0.039 µg/mL	50		mouse anti-human α9 integrin antibody Y9A2 (antibody, V domains shown) VH: QVQLQQSGAELANPGASVKMSCKASGYTLTTYWMHWVKQRPGQGLEWIGYINPSSGYTEYNQKFKDKATLTADKSSSTAYMQLTSLTSEDSAVYYCAIYGDYGDFYFDYWGQGTTLTVSS VL: SIVMTQTPKFLLVSAGDRVTMTCKASQSVNTDVAWFQQKPGQSPKLLIYFASNHYTGVPDRFTGSGYGTDFTFTISTVQAEDLAIYFCRQDYSSPFTFGGGTKLEIKR
	5	~4	RY9A2v12 (W33FM34L) 012 antibody (antibody, human IgG1, kappa, V domains shown) VH: QVQLVQSGAEVKKPGSSVKVSCKASGYTLTTYFLHWVRQAPGQGLEWMGYINPSSGYTEYNQKFQGRVTITADKSTSTAYMELSSLRSEDTAVYYCAIYGDYGDFYFDYWGQGTTVTVSS VL: DIQMTQSPSSLSASVGDRVTITCRASQSVNTDVAWYQQKPGKAPKLLIYFASNHYTGVPSRFSGSGSGTDFTFTISSLQPEDIATYYCRQDYSSPFTFGGGTKVEIKR
	5	~4	RY9A2v12 (W33YM34L) 012 antibody (antibody, human IgG1, kappa, V domains shown) VH: QVQLVQSGAEVKKPGSSVKVSCKASGYTLTTYYLHWVRQAPGQGLEWMGYINPSSGYTEYNQKFQGRVTITADKSTSTAYMELSSLRSEDTAVYYCAIYGDYGDFYFDYWGQGTTVTVSS VL: DIQMTQSPSSLSASVGDRVTITCRASQSVNTDVAWYQQKPGKAPKLLIYFASNHYTGVPSRFSGSGSGTDFTFTISSLQPEDIATYYCRQDYSSPFTFGGGTKVEIKR
